Where no end group is shown, it is not given here. The star is where a group is joined. Biotin = O=C1N[C@H]2[C@H](CS[C@H]2CCCCC(=O)*)N1; Myristoyl = CCCCCCCCCCCCCC(=O)*
Key:
Assay in all cases: BLI; Octet Red96, 96 well plates, PBS-T buffer (1X PBS, 0.05% tween-20); 120 µM biotinylated peptide attached to the sensor; analytes (SIRT6/SIRT6 mutants) from 0.18 to 5.5 µM; also run with cofactors (5 mM Mg2+, Zn2+, ATP, ADP, AMP, cAMP, NAD+)
Conditions in all cases: both partners purified
SIRT6 H133Y = biological target: T1, SIRT6 H133Y (human, UniProt Q8N6T7 1-355, H133Y)
T1 construct: human SIRT6, full length (1-355aa), pET28a-SIRT6H133Y; also called dSIRT6; dSIRT6 (H133Y); source: E. coli ArcticExpress (DE3), purified (Ni Sepharose); not shown: His-tag, N-terminal, kept; Flag, C-terminal, kept
T1 sequence (Q8N6T7 whole entry H133Y): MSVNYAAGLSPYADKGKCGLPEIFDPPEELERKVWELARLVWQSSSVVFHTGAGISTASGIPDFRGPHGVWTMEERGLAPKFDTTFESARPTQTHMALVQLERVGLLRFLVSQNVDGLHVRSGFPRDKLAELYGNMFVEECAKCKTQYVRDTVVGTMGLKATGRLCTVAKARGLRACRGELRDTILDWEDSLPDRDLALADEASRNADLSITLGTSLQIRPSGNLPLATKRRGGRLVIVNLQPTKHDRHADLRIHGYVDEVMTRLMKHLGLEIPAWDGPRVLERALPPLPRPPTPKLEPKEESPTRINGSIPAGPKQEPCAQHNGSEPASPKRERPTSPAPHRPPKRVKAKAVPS

[1] = biological target: T2, Wild-type SIRT6 (Sirtuin 6) (human, UniProt Q8N6T7 1-355)
T2 construct: human SIRT6, full length (1-355aa), from pUC57-SIRT6 into pET28a; no tag cleavage is described; also called SIRT6 WT; source: E. coli ArcticExpress (DE3), purified (Ni Sepharose); not shown: His-tag, N-terminal, kept; Flag, C-terminal, kept
T2 sequence (Q8N6T7 whole entry): as the sequence (Q8N6T7 whole entry H133Y) above, with Y133H counted along it

SIRT6 R65A = biological target: T3, SIRT6 R65A (human, UniProt Q8N6T7 1-355, R65A)
T3 construct: human SIRT6, full length (1-355aa), pET28a-SIRT6R65A; also called dSIRT6 variant; source: E. coli ArcticExpress (DE3), purified (Ni Sepharose); not shown: His-tag, N-terminal, kept; Flag, C-terminal, kept
T3 sequence (Q8N6T7 whole entry R65A): as the sequence (Q8N6T7 whole entry H133Y) above, with R65A, Y133H counted along it

SIRT6 S56Y = biological target: T4, SIRT6 S56Y (human, UniProt Q8N6T7 1-355, S56Y)
T4 construct: human SIRT6, full length (1-355aa), pET28a-SIRT6S56Y; also called dSIRT6 variant; source: E. coli ArcticExpress (DE3), purified (Ni Sepharose); not shown: His-tag, N-terminal, kept; Flag, C-terminal, kept
T4 sequence (Q8N6T7 whole entry S56Y): as the sequence (Q8N6T7 whole entry H133Y) above, with S56Y, Y133H counted along it

B1: B-H3K9^Myr-5R (biotin-KQTARK^MyrSTGGKARRRRR) (peptide)
peptide: Biotin-KQTARK(Myristoyl)STGGKARRRRR
notes: histone H3 N-terminal stretch around K9; five arginine residues added at the C-terminus so that the peptide is soluble in water; also called myristoylated peptide; source: synthetic peptide (Boster Biological Technology)
SIRT6 H133Y
  binding result: binds
[1]
  Kd: 8.1 ± 0.96 µM
SIRT6 R65A
  binding result: binds
SIRT6 S56Y
  binding result: binds

From publication PMC12591191, “SIRT6 Lysine‐Demyristoylates ATF2 to Ameliorate Vascular Injury via PRKCD/VE‐Cadherin Pathway Regulating Vascular Endothelial Barrier” (Advanced Science, 2025)
